Measured values as given in PMC12272874.

Molecular target: N-terminal FMN-binding domain of human methionine synthase reductase (ΔCMTRR, residues 1 to 231) (UniProt Q9UBK8)
Experiment: stopped-flow absorption spectroscopy; MTR•cob(II)alamin (40 μM) rapidly mixed with ΔCMTRRhq (70 μM) in Buffer D (100 mM potassium phosphate, pH 7.4), anaerobic, 24 °C; increase in absorbance at 464 nm (loss of His-785 coordination) over 60 s, double exponential fit
Conditions: other: stopped-flow absorption spectroscopy

Chain of N-terminal FMN-binding domain of human methionine synthase reductase (ΔCMTRR, residues 1 to 231) (Q9UBK8 1-231, stated change not applied): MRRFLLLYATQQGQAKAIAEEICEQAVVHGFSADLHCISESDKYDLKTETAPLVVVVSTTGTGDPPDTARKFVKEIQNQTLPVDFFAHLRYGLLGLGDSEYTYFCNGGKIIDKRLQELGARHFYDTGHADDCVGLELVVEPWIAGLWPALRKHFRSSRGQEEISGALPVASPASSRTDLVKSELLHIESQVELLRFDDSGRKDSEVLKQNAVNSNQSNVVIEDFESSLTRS
Chain of P1173L variant of human methionine synthase (MTR), full-length recombinant (chain, as listed by the source P1173L): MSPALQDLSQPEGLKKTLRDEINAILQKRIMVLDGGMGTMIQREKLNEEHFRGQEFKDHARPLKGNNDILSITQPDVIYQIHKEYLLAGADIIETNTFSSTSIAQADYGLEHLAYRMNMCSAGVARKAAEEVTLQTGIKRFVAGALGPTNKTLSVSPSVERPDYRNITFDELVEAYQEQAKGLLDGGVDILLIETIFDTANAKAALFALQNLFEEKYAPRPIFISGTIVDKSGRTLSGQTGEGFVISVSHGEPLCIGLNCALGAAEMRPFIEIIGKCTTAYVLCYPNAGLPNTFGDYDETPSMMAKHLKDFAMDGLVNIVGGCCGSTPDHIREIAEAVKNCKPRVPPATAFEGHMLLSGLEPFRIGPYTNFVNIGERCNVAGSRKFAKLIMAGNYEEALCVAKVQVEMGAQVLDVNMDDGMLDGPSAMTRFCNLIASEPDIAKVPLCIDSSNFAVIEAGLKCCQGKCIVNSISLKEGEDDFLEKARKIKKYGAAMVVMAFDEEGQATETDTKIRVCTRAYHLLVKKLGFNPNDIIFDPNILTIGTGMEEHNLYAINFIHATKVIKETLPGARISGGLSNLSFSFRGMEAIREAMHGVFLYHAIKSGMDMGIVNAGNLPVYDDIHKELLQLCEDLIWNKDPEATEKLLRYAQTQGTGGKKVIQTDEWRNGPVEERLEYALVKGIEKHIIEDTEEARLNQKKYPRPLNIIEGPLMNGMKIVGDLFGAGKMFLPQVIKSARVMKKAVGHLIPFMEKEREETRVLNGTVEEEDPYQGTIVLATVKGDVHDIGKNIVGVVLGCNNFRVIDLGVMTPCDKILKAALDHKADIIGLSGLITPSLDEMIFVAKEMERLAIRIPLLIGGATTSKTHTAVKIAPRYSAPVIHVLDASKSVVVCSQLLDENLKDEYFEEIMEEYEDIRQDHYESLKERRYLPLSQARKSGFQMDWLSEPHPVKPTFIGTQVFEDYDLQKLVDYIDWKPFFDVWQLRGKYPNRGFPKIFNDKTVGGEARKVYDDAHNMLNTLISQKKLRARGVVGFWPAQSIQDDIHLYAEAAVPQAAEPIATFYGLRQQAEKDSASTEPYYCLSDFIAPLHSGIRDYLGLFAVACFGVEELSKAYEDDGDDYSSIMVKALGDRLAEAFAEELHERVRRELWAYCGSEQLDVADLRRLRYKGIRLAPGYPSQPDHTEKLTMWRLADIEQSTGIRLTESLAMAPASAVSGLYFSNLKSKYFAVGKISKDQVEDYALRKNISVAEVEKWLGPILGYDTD
Chain of Human methionine synthase (MTR), wild-type, full-length recombinant (chain, as listed by the source): as the sequence (chain, as listed by the source P1173L) above, with L1173P counted along it

Substance | observed rate constant for complex formation (kobs)
P1173L variant of human methionine synthase (MTR), full-length recombinant | the observed rate constant for complex formation was 0.1 ± 0.01 s^−1
Human methionine synthase (MTR), wild-type, full-length recombinant | the observed rate constant for complex formation was 0.1 ± 0.01 s^−1
